The subject of data set [1] is SARS2-N/M (SUD-N/M) (SARS-CoV-2 (WA1)). Nature of the data set: zone-interference gel electrophoresis.
The test system of data set [2] is SARS1-N/M (SUD-N/M) (SARS-CoV). In words: zone-interference gel electrophoresis.

Regarding BCL2 G4 quadruplex oligonucleotide, the equilibrium dissociation constant (Kd) is 4100 nM in data set [1] and 1600 nM in data set [2].

The values above are taken from publication PMC11343135.
